Data set [1] deals with PD1 on CD3 lymphocytes. Description: PD1 surface expression on CD3 lymphocytes by flow cytometry in KPC tumor mice (Example 12). The settings on record: wildtype mice, KPC-PDAC (50 000 cells i.p.), 21 days; rec. ASM for 2 days with 4 i.p. injections/day; individual mice. In kind it is in vivo. As to the method: FIG. 12 is a graph showing the PDI expression on lymphocytes of tumor mice upon treatment with recombinant acid sphingomyelinase or solvent.
The PD1 expression on lymphocytes with/without treatment with recombinant acid sphingomyelinase was determined. The surface expression of PD1 on CD3 lymphocytes was determined by flow cytometry upon staining with FITC-anti-PD1 and APC-anti-CD3 antibodies, expressed as mean fluorescence in a.u. of PD1 in the CD3-positive cell population. Mice were i.p. injected with 50 000 KPC tumor cells, left for 21 days untreated or treated with recombinant acid sphingomyelinase for 2 days with 4 i.p. injections/day.

The conditions of data set [2]: in humans; cited from earlier work.
The conditions of data set [3]: cited from earlier work.
The test system of data set [4] is KPC tumor cells. Description: Survival after i.p. injection of KPC tumor cells (Example 11). In kind it is in vivo, mice. To be noted: 50 000 KPC tumor cells i.p., rec. ASM i.p. twice daily for 2 weeks, starting 2 days after tumor injection; for Survival of individual subjects: anti-PD1 every 2nd day i.p. 250 μg/25 g where combined. As to the method:
Group 1: 50 000 KPC tumor cells were i.p. injected and tumor development was determined. For this group, the subjects survived, respectively, for 27, 28, 28, 29, 30, and 31 days.
Group 2: Survival time was collected for subjects upon application of recombinant acid sphingomyelinase (i.p., twice daily, for 2 weeks, starting 2 days after tumor injection). For this group, the subjects survived, respectively, for 48, 55, 57, 60, 62, 65 and 70 days. The acid sphingomyelinase was injected for a longer time and i.p. in these experiments than in FIG. 11.
Group 3: Survival time was collected for subjects upon application of recombinant acid sphingomyelinase (i.p., twice daily, for 2 weeks, starting 2 days after tumor injection)+application of anti-PD1 antibodies (every 2nd day i.p., 250 μg/25 g). For this group, the subjects survived, respectively, for 75, 80, 85, 87, 90, 93 and 96 days. The half-life time of acid sphingomyelinase is rather short in mice (2 hrs, but much longer in humans with 2 weeks). Thus, the i.p. injection are not very sufficient and must be replaced by continuous infusion, which may allow complete elimination of the tumors.

Data set [5] deals with KPC cells. Description: Tumor growth in wt mice after peritoneal injection of KPC cells, gemcitabine plus recombinant ASM (Example 10, FIG. 11). The settings on record: 0.75 mg/kg i.v. twice daily, 2 treatment cycles of 4 days each, in combination with gemcitabine; KPC tumor-injected wt mice. The format is in vivo. On the procedure:
FIG. 11 is a graph showing the results of wt mice that were treated with gemcitabine alone, gemcitabine plus recombinant ASM, or vehicle control after peritoneal injection of KPC cells. Recombinant ASM was administered twice daily at 0.75 mg/kg i.v. for two treatment cycles of 4 days each.
Since PDAC growth in ASM-tr mice. we determined the therapeutic potential of exogenous administration of recombinant ASM. We administered 0.75 mg/kg recombinant ASM i.v. twice daily to tumor-injected mice for 2 treatment cycles of 4 days each in combination with the standard treatment, i.e. gemcitabine. […] However, because the half-life of recombinant ASM is only 2 h, these studies must be repeated with continuous infusion of ASM.
Wt mice were treated with gemcitabine alone (“Group 1”), gemcitabine plus recombinant ASM (“Group 2”) or vehicle control after peritoneal injection of KPC cells (“Group 3”). Recombinant ASM was administered twice daily 0.75 mg/kg i.v. for two treatment cycles of 4 days each.

Where “and” joins values, the source holds several entries; their conditions need not be identical. Identical values can stand only once. Like-named read-outs stand apart in the source and are kept apart here.

B1: recombinant ASM: recombinant acid sphingomyelinase (EC 3.1.4.12, SMPD1), a lysosomal hydrolase glycoprotein degrading sphingomyelin to phosphorylcholine and ceramide (protein, UniProt P17405 47-631, looked up)
Sphingomyelin …: LALSDSRVLWAPAEAHPLSPQGHPARLHRIVPRLRDVFGWGNLTCPICKGLFTAINLGLKKEPNVARVGSVAIKLCNLLKIAPPAVCQSIVHLFEDDMVEVWRRSVLSPSEACGLLLGSTCGHWDIFSSWNISLPTVPKPPPKPPSPPAPGAPVSRILFLTDLHWDHDYLEGTDPDCADPLCCRRGSGLPPASRPGAGYWGEYSKCDLPLRTLESLLSGLGPAGPFDMVYWTGDIPAHDVWHQTRQDQLRALTTVTALVRKFLGPVPVYPAVGNHESTPVNSFPPPFIEGNHSSRWLYEAMAKAWEPWLPAEALRTLRIGGFYALSPYPGLRLISLNMNFCSRENFWLLINSTDPAGQLQWLVGELQAAEDRGDKVHIIGHIPPGHCLKSWSWNYYRIVARYENTLAAQFFGHTHVDEFEVFYDEETLSRPLAVAFLAPSATTYIGLNPGYRVYQIDGNYSGSSHVVLDHETYILNLTQANIPGAIPHWQLLYRARETYGLPNTLPTAWHNLVYRMRGDMQLFQTFWFLYHKGHPPSEPCGTPCRLATLCAQLSARADSPALCRHLMPDGSLPEAQSLWPRPLFC
On to B1, for which the “Surface expression of PD1 on CD3 lymphocytes, mean fluorescence of PD1 in the CD3-positive cell population” value in data set [1] is 138 a.u. and 129 a.u. and 125 a.u. and 118 a.u. and 131 a.u. and 115 a.u. and 141 a.u. For the same molecule, the “half-life time of acid sphingomyelinase” value was 2 weeks in data set [2] and 2 h in data set [3] (in mice). Further, the “half-life of recombinant ASM” value in data set [3] (stated in mouse study of Example 10) is 2 h. Moreover, the “Survival of individual subjects” value in data set [4] was 48 days and 55 days and 57 days and 60 days and 62 days and 65 days and 70 days; in data set [4] (listed as Rec. ASM alone), 48 days and 55 days and 57 days and 60 days and 62 days and 65 days and 70 days. Besides, the “Avg. Survival” value in data set [4] (anti-PD1 every 2nd day i.p. where combined) is given as 59.6 days. Further, the tumor growth result in data set [5] is reported as “delayed tumor growth”.

Source of the values: patent publication US20250341522A1, “Treatment Strategies for Pancreatic Cancer Using Recombinant Acid Sphingomyelinase” (University of Cincinnati, priority 2024, published 2025).
